According to patent US20240352438A1, “MEANS AND METHODS FOR DETOXIFYING OCHRATOXIN A” (DSM Austria GmbH, priority 2021, published 2024):
Where a chain is given by its changes, count along the chain named.

B1: 208 (protein)
chain: MTTRTRILTAFLSLLAANACAADAAPAAPPTVVLRAARMFDGASGKLVDHPQLTIVGNKIVRIAQGDKAEVPAGAEVVDLGDATLLPGFIDAHVHLSGQSSDNWYGDFFDNMMRFPAEQALYGAYYARITLEAGFTSVRDVGSTDWVALGLRNAIDAGKVPGPRMLVSNYAVGSTGGHADQDPIPPHKLPLAGPLQGVCNGPEECRAAVRYQIKYGANVIKFMPSGGVLSLSDPVDAPELSQDEMNAVIGESHAWGRKVAAHAHGDKAAKMAVAAGVDSIEHGSFIEDDTLRAMKAKNVYLVPTISAIAHVEEKIGTFPPVIAEKGRAAAAHLRQTFRHAVQIGVPIALGTDAGVGAHGSNAREFRYMVENGLTPAQALLAGTANAARLLGTFDRVGTLEAGKLADVVAVPGNPIADITVTERPLFVMKDGVVVRRDAVR
modifications: exemplary polypeptide
B2: 224 (protein)
chain: B1 chain with P30H, K188R
modifications: exemplary polypeptide
B3: 209 (protein)
chain: B1 chain with P30R
modifications: exemplary polypeptide
B4: 219 (protein)
chain: B1 chain with P30H, H187E
modifications: exemplary polypeptide
B5: 214 (protein)
chain: B1 chain with P30H, N103D
modifications: exemplary polypeptide
B6: 216 (protein)
chain: B1 chain with P30H, N103Q
modifications: exemplary polypeptide
B7: 220 (protein)
chain: B1 chain with P30H, H187G
modifications: exemplary polypeptide
B8: 213 (protein)
chain: B1 chain with P30H, S100D
modifications: exemplary polypeptide
B9: 218 (protein)
chain: B1 chain with P30H, H187D
modifications: exemplary polypeptide
B10: 237 (protein)
chain: B1 chain with P30H, S284H
modifications: exemplary polypeptide
B11: 211 (protein)
chain: B1 chain with P30H, H50N
modifications: exemplary polypeptide
B12: 217 (protein)
chain: B1 chain with P30H, T130E
modifications: exemplary polypeptide
B13: 230 (protein)
chain: B1 chain with P30H, S230T
modifications: exemplary polypeptide
B14: 231 (protein)
chain: B1 chain with P30H, D233N
modifications: exemplary polypeptide
B15: 235 (protein)
chain: B1 chain with P30H, H253N
modifications: exemplary polypeptide
B16: 210 (protein)
chain: B1 chain with P30H, H50D
modifications: exemplary polypeptide
B17: 234 (protein)
chain: B1 chain with P30H, H253A
modifications: exemplary polypeptide
B18: 225 (protein)
chain: B1 chain with P30H, G226A
modifications: exemplary polypeptide
B19: 227 (protein)
chain: B1 chain with P30H, G226S
modifications: exemplary polypeptide

assay: OTA detoxification activity assay (specific activity, fluorescence reduction ex/em 390/450 nm); type: biochemical; conditions: pH 6.0; SEQ ID NO: 1 = 100%
In short: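 Recombinant enzyme preparation with 200 ng/mL OTA in 100 mM sodium phosphate, at pH 6.0 and pH 7.5, 37° C. Degradation followed as the fall in fluorescence at ex/em 390/450 nm. Specific activity taken from the initial linear slope; one unit degrades 1 μmol OTA per min at a starting OTA of […].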

Row | Molecule | Specific OTA detoxification activities in % compared to the enzyme of SEQ ID NO: 1, pH 6.0 [%]
1 | B1 | 135
2 | B2 | 169
3 | B3 | 143
4 | B4 | 87
5 | B5 | 123
6 | B6 | 147
7 | B7 | 85
8 | B8 | 76
9 | B9 | 104
10 | B10 | 49
11 | B11 | 121
12 | B12 | 153
13 | B13 | 141
14 | B14 | 20
15 | B15 | 56
16 | B16 | 93
17 | B17 | 23
18 | B18 | 24
19 | B19 | 47

same assay, conditions: pH 7.5; SEQ ID NO: 1 = 100%

Row | Molecule | Specific OTA detoxification activities in % compared to the enzyme of SEQ ID NO: 1, pH 7.5 [%]
20 | B1 | 108
21 | B2 | 132
22 | B3 | 88
23 | B4 | 88
24 | B5 | 108
25 | B6 | 115
26 | B7 | 83
27 | B8 | 39
28 | B9 | 101
29 | B10 | 26
30 | B11 | 111
31 | B12 | 139
32 | B13 | 127
33 | B14 | 22
34 | B15 | 38
35 | B16 | 102
36 | B17 | 13
37 | B18 | 27
38 | B19 | 36

assay: Enzymatic activity comparison: activity remaining after 65° C. for 10 min at pH 6.0, relative to SEQ ID NO: 1; type: physicochemical; conditions: not given
Experimental: To compare the temperature behavior and thermostability of selected enzymes to one another, enzyme was incubated at 65° C. for 10 min at pH 6.0. The enzymatic activity remaining after incubation was compared to the remaining activity of the enzyme of SEQ ID NO: 1 after incubation, the latter being set to 100%, see Table 16.

Row | Molecule | Enzymatic activity remaining after incubation, compared to SEQ ID NO: 1 (set to 100%) [%]
39 | B1 | 35
40 | B2 | 40
41 | B3 | 31
42 | B4 | 38
43 | B5 | 59
44 | B6 | 14
45 | B7 | 22
46 | B8 | 25
47 | B9 | 28
48 | B10 | 14
49 | B11 | 34
50 | B12 | 36
51 | B13 | 32
52 | B14 | 75
53 | B15 | 56
54 | B16 | 39
55 | B17 | 50
56 | B18 | 84
57 | B19 | 24
